Data published in the supplement of paper PMC7877785.
± gives the uncertainty stated by the source.

Assay: self-splicing fitness, log relative to wild type (ln ratio); higher = more splicing; Tetrahymena group I intron in knt gene, E. coli kanamycin selection, DiMSum; sequences stand for … in CUCUCU…GGAGGGAAAAGUUAUCAGGCAUGCACCUGGUAGCUAGUCUUUAAACCAAUAGAUUGCAUCGGUUUAAAAGGCAAGACCGUCAAAUUGCGGGAAAGGGGUCAACAGCCGUUCAGUACCAAGUCUCAGGGGAAACUUUGAGAUGGCCUUGCAAAGGGUAUGGUAAUAAGCUGACGGACAUGGUCCUAACCACGCAGCCAAGUCCUAAGUCAACAGAUCUUCUGUUGAUAUGGAUGCAGUUCACAGACUAAAUGUCGGUCGGGGAAGAUGUAUUCUUCUCAUAAGAUAUAGUCGGACCUCUCCUUAAUGGGAGCUAGCGGAUGAAGUGAUGCAACACUGGAGCCGCUGGGAACUAAUUUGUAUGCGAAAGUAUAUUGAUUAGUUUUGGAGUACUCGUGGUCG
Summary of the method: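 Fitness was computed with DiMSum as the error-weighted combination of replicate fold changes, kanamycin versus none, each normalised to wild type. The library randomised all eight intron nucleotides of the P1ex region, with the intron placed in the knt kanamycin-resistance gene on pET-22b(+) in E. coli BL21(DE3). Six replicate transformations were grown overnight at 37°C or 30°C on LB agar with or without 25 μg/mL kanamycin, plus 100 μg/mL carbenicillin, 50 μM IPTG and 0.2% rhamnose. Pooled colonies were amplicon-sequenced on an Illumina HiSeq 2500.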

Sequence | self-splicing fitness (ln) (37 °C) | self-splicing fitness (ln) (30 °C)
GACGAGCAAUAUUACGUAUC | -2.42 ± 0.35 | –
GACGAGCAAUAUUACGUGAG | -2.62 ± 0.19 | -2.7 ± 0.16
GACGAGCAAUAUUACGUGAU | -2.6 ± 0.16 | -3.53 ± 0.17
GACGAGCAAUAUUACGUGCG | -0.259 ± 0.11 | -2.7 ± 0.17
GACGAGCAAUAUUACGUGUC | -2.74 ± 0.28 | –
GACGAGCAAUAUUACGUUCA | -0.881 ± 0.16 | -1.67 ± 0.19
GACUAGCAAUAUUACGACAA | -0.0215 ± 0.069 | -0.896 ± 0.063
GACUAGCAAUAUUACGACAC | -0.0737 ± 0.093 | -0.0525 ± 0.075
GACUAGCAAUAUUACGACCC | 0.392 ± 0.18 | 0.42 ± 0.14
GACUAGCAAUAUUACGAGUG | -0.316 ± 0.098 | -0.94 ± 0.078
GACUAGCAAUAUUACGAUUG | -2.14 ± 0.15 | -2.2 ± 0.087
GACUAGCAAUAUUACGCAGG | -2.17 ± 0.12 | -3.04 ± 0.17
GACUAGCAAUAUUACGCAUU | -1.63 ± 0.13 | -2.42 ± 0.14
GACUAGCAAUAUUACGCUAA | -0.983 ± 0.13 | -1.08 ± 0.12
GACUAGCAAUAUUACGCUCA | -0.306 ± 0.11 | -0.407 ± 0.1
GACUAGCAAUAUUACGCUUU | -1.66 ± 0.16 | -2.59 ± 0.19
GACUAGCAAUAUUACGGACA | -0.0878 ± 0.11 | -0.472 ± 0.1
GACUAGCAAUAUUACGGCCU | -0.85 ± 0.16 | -1 ± 0.11
GACUAGCAAUAUUACGGGCU | -1.64 ± 0.15 | -2.18 ± 0.15
GACUAGCAAUAUUACGGUCU | -3.21 ± 0.33 | -3.36 ± 0.22
GACUAGCAAUAUUACGGUUA | 0.109 ± 0.085 | -0.116 ± 0.083
GACUAGCAAUAUUACGUCCC | -0.833 ± 0.22 | -1.82 ± 0.23
GACUAGCAAUAUUACGUGAA | -0.302 ± 0.083 | -0.567 ± 0.056
GACUAGCAAUAUUACGUGCA | -0.504 ± 0.068 | -0.898 ± 0.059
GACUAGCAAUAUUACGUUUA | -0.651 ± 0.11 | -1.05 ± 0.094
GAGAAGCAAUAUUACGAAGA | -1.67 ± 0.26 | -1.43 ± 0.28

Sequence | self-splicing fitness (ln) (37 °C) | self-splicing fitness (ln) (30 °C)
GAGAAGCAAUAUUACGACAC | 0.578 ± 0.18 | -0.317 ± 0.15
GAGAAGCAAUAUUACGACGG | -1.97 ± 0.23 | -3.47 ± 0.29
GAGAAGCAAUAUUACGACUC | -1.82 ± 0.23 | -2.38 ± 0.18
GAGAAGCAAUAUUACGAGAG | -1.91 ± 0.22 | -2.86 ± 0.23
GAGAAGCAAUAUUACGAGCG | -0.106 ± 0.18 | -1.15 ± 0.16
GAGAAGCAAUAUUACGAGGC | -1.78 ± 0.17 | -3.35 ± 0.21
GAGAAGCAAUAUUACGCAAU | -1.52 ± 0.14 | -3.12 ± 0.17
GAGAAGCAAUAUUACGCACA | 0.27 ± 0.25 | -0.725 ± 0.19
GAGAAGCAAUAUUACGCAGA | -1.8 ± 0.19 | -2.84 ± 0.17
GAGAAGCAAUAUUACGCCAU | -1.87 ± 0.35 | -2.68 ± 0.38
GAGAAGCAAUAUUACGCCUA | -1.03 ± 0.14 | -0.659 ± 0.15
GAGAAGCAAUAUUACGCGAG | -0.918 ± 0.078 | -1.75 ± 0.086
GAGAAGCAAUAUUACGCGCA | 0.342 ± 0.12 | -0.304 ± 0.11
GAGAAGCAAUAUUACGGACG | -0.528 ± 0.2 | -0.812 ± 0.12
GAGAAGCAAUAUUACGUACA | -0.692 ± 0.077 | -0.535 ± 0.066
GAGAAGCAAUAUUACGUAGG | -0.924 ± 0.15 | -3.2 ± 0.23
GAGAAGCAAUAUUACGUUUC | -3.08 ± 0.27 | -3.64 ± 0.32
GAGCAGCAAUAUUACGAAUG | -1.94 ± 0.14 | -3.81 ± 0.2
GAGCAGCAAUAUUACGACAG | -2.6 ± 0.27 | -3.25 ± 0.21
GAGCAGCAAUAUUACGACGU | -0.812 ± 0.079 | -0.383 ± 0.072
GAGCAGCAAUAUUACGAGUA | -1.92 ± 0.26 | -2.42 ± 0.34
GAGCAGCAAUAUUACGAGUC | -1.92 ± 0.17 | -1.91 ± 0.12
GAGCAGCAAUAUUACGAUAC | -1.45 ± 0.15 | -1.61 ± 0.12
GAGCAGCAAUAUUACGCACC | -1.82 ± 0.48 | -2.67 ± 0.39
GAGCAGCAAUAUUACGCCCC | – | -2.24 ± 0.47
GAGCAGCAAUAUUACGCCCU | – | -0.964 ± 0.31

Sequence | self-splicing fitness (ln) (37 °C) | self-splicing fitness (ln) (30 °C)
GAGCAGCAAUAUUACGCCGC | -2.43 ± 0.38 | -1.63 ± 0.22
GAGCAGCAAUAUUACGCGAG | -0.876 ± 0.12 | -2.38 ± 0.14
GAGCAGCAAUAUUACGCGAU | -0.0586 ± 0.21 | -4.28 ± 0.33
GAGCAGCAAUAUUACGCUAC | -1.95 ± 0.33 | –
GAGCAGCAAUAUUACGCUUU | -2.5 ± 0.26 | -1.94 ± 0.18
GAGCAGCAAUAUUACGGACU | -0.127 ± 0.11 | -1.32 ± 0.082
GAGCAGCAAUAUUACGGCGC | 0.209 ± 0.17 | -0.751 ± 0.12
GAGCAGCAAUAUUACGGGCG | -0.811 ± 0.16 | -2.09 ± 0.14
GAGCAGCAAUAUUACGGUUA | -0.875 ± 0.1 | -0.804 ± 0.1
GAGCAGCAAUAUUACGUACA | -0.116 ± 0.17 | -1.06 ± 0.22
GAGCAGCAAUAUUACGUAGU | -1.01 ± 0.15 | -3.35 ± 0.19
GAGCAGCAAUAUUACGUCAU | -1.02 ± 0.13 | -2.38 ± 0.12
GAGCAGCAAUAUUACGUCUA | 0.0653 ± 0.13 | 0.0729 ± 0.12
GAGCAGCAAUAUUACGUGCG | -1.25 ± 0.11 | -1.65 ± 0.12
GAGCAGCAAUAUUACGUGGA | -1.69 ± 0.15 | -3.09 ± 0.22
GAGCAGCAAUAUUACGUGGU | -2.25 ± 0.23 | -3.66 ± 0.25
GAGCAGCAAUAUUACGUGUU | -2.81 ± 0.22 | -3.3 ± 0.33
GAGCAGCAAUAUUACGUUAA | -0.69 ± 0.13 | -3.53 ± 0.27
GAGCAGCAAUAUUACGUUAG | -1.93 ± 0.19 | -2.57 ± 0.16
GAGGAGCAAUAUUACGAACG | -1.54 ± 0.25 | -2.65 ± 0.22
GAGGAGCAAUAUUACGACAG | -1.5 ± 0.39 | -1.38 ± 0.36
GAGGAGCAAUAUUACGACUC | -2.25 ± 0.31 | -3.04 ± 0.27
GAGGAGCAAUAUUACGAGAU | – | -2.78 ± 0.32
GAGGAGCAAUAUUACGAGGG | -1.96 ± 0.41 | –
GAGGAGCAAUAUUACGAGGU | -3.09 ± 0.25 | -2.71 ± 0.24
